Measurements from patent US20230129258A1 (Bicycle, published 2023).
Starred links: 1 amine or outer side, 2 acyl side, 3 side chain; linkers in the order of their positions; H or OH if unused. Positions of bridges follow the written chain, without caps; N, C: chain ends. Non-standard residues stand in square brackets, D forms with d. Chains are numbered I, II in the order given. No end group written: not given here. *: point of attachment. TATA = O=C(CC[*:1])N1CN(C(=O)CC[*:2])CN(C(=O)CC[*:3])C1; Dip = N[C@H](C(=O)O)C(c1ccccc1)c1ccccc1; 1Nal = N[C@@H](Cc1cccc2ccccc12)C(=O)O; Hyp = O=C(O)[C@@H]1C[C@@H](O)CN1; hArg = N=C(N)NCCCC[C@H](N)C(=O)O; tBuAla = CC(C)(C)C[C@H](N)C(=O)O; Cba = N[C@@H](CC1CCC1)C(=O)O; dK(PYA) = not defined here; Nle = CCCC[C@H](N)C(=O)O; Pent4ynoyl = C#CCCC(=O)*; Mpa = O=C(O)CCS

B1: BCY12484 (peptide)
peptide 1: CPXDCMXDWSTPXWC
peptide 2: CXEEXPYCFADPYXC
modifications: not fully specified; BCY12143: Ac-(SEQ ID NO: 64); TATA; linker at dLys(PYA)4; BCY8116: SEQ ID NO: 1; TATA; linker at N-terminus
B2: BCY12486 (peptide)
peptide 1: CPXDCMXDWSTPXWC
peptide 2: CXPEXPYCFANPYXC
modifications: not fully specified; BCY12147: Ac-(SEQ ID NO: 65); TATA; linker at dLys(PYA)4; BCY8116: SEQ ID NO: 1; TATA; linker at N-terminus
B3: BCY12485 (peptide)
peptide 1: CPXDCMXDWSTPXWC
peptide 2: CXPEXPYCFADPYXC
modifications: not fully specified; BCY12149: Ac-(SEQ ID NO: 63); TATA; linker at dLys(PYA)4; BCY8116: SEQ ID NO: 1; TATA; linker at N-terminus
B4: BCY11385 (peptide)
peptide 1: CPXDCMXDWSTPXWC
peptide 2: CXPEAPYCFADPYXCX
modifications: not fully specified; BCY11014: Ac-(SEQ ID NO: 6)-Dap(PYA); TATA; linker at C-term Dap(PYA); BCY8116: SEQ ID NO: 1; TATA; linker at N-terminus
B5: BCY12586 (peptide)
peptide 1: CPXDCMXDWSTPXWC
peptide 2: CXPEXPYCFADPYXX
modifications: not fully specified; BCY12352: Ac-(SEQ ID NO: 69), [Cysam] third reactive group; TATA; linker at dLys(PYA)4; BCY8116: SEQ ID NO: 1; TATA; linker at N-terminus
B6: BCY13049 (peptide)
peptide 1: C[Hyp]LVNPLCLEP[dD]WTC[dA]
peptide 2: Ac-C[tBuAla]PE[dK](Pent4ynoyl)PYCFADPY[Nle]CA
modifications: linker I:1-I:8-I:15, II:1-II:8-II:15 via TATA (inferred); not fully specified (N-terminus); also: linker joins chain 1 to two chain 2 copies via PYA triazoles
B7: BCY13281 (peptide)
peptide 1: AADCXLVNPLCLEPDWTC
peptide 2: CXPEXPYCFADPYXCA
modifications: not fully specified; BCY8928: Ac-(SEQ ID NO: 11)-A; TATA; linker at dLys(PYA)4; BCY13127: [dA]-[dA]-D-(SEQ ID NO: 35); TATA; linker at N-terminus
B8: BCY13273 (peptide)
peptide 1: C[Hyp]LVNPLCL[1Nal]PDWTC
peptide 2: Ac-C[tBuAla]PE[dK](Pent4ynoyl)PYCFADPY[Nle]CA
modifications: linker I:1-I:8-I:15 via TATA; linker II:1-II:8-II:15 via TATA (inferred); not fully specified (some residues, N-terminus); also: linker joins chain 1 to two chain 2 copies via PYA triazoles
B9: BCY13282 (peptide)
peptide 1: ADC[Hyp]LVNPLCLEP[dD]WTC
peptide 2: Ac-C[tBuAla]PE[dK](Pent4ynoyl)PYCFADPY[Nle]CA
modifications: linker I:3-I:10-I:17, II:1-II:8-II:15 via TATA (inferred); not fully specified (N-terminus, bridges); also: 1:2 complex: two BCY8928 chains on the linker
B10: BCY12978 (peptide)
peptide 1: A[hArg]EC[Hyp]LVNPLCLHP[dE]W[hArg]C
peptide 2: Ac-C[tBuAla]PE[dK](Pent4ynoyl)PYCFADPY[Nle]CA
modifications: linker I:4-I:11-I:18, II:1-II:8-II:15 via TATA (inferred); not fully specified (bridges); also: chain 1 N-terminus and chain 2 dLys(PYA) joined through N-(acid-PEG3)-N-bis(PEG3-azide) linker
B11: BCY13048 (peptide)
peptide 1: C[Hyp]LVNPLCL[Dip]P[dD]WTC
peptide 2: Ac-C[tBuAla]PE[dK](Pent4ynoyl)PYCFADPY[Nle]CA
modifications: linker I:1-I:8-I:15 via TATA; linker II:1-II:8-II:15 via TATA (inferred); not fully specified (N-terminus, bridges); also: 1:2 complex: two copies of chain 2 (BCY8928) on the branched linker
B12: BCY13053 (peptide)
peptide 1: C[Hyp][Cba]VNPLCL[Dip]P[dD]WTC[dA]
peptide 2: Ac-C[tBuAla]PE[dK](Pent4ynoyl)PYCFADPY[Nle]CA
modifications: linker I:1-I:8-I:15 via TATA; linker II:1-II:8-II:15 via TATA (inferred); not fully specified (N-terminus, bridges); also: 1:2 complex: two copies of chain 2 (BCY8928) on the branched linker
B13: BCY13343 (peptide)
peptide 1: C[Hyp]LVNPLCL[Dip]PDWTC
peptide 2: [Mpa][tBuAla]PE[dK(PYA)]PYCFADPY[Nle]C
modifications: linker I:1-I:8-I:15, II:1-II:8-II:15 via TATA; not fully specified (some residues); reading uncertain; also: 1:2 complex: two copies of chain 2 (BCY12353) on the branched linker, linker at chain B 5 to a chain's N-terminus via N-(acid-PEG3)-N-bis(PEG3-azide)
B14: BCY13280 (peptide)
peptide 1: [dA]EDC[Hyp]LVNPLCLEP[dD]WTC
peptide 2: Ac-C[tBuAla]PE[dK](Pent4ynoyl)PYCFADPY[Nle]CA
modifications: linker I:4-I:11-I:18, II:1-II:8-II:15 via TATA (inferred); not fully specified (N-terminus, bridges); also: 1:2 complex: two copies of chain 2 (BCY8928) on the branched linker
B15: BCY13274 (peptide)
peptide 1: Ac-C[Hyp]LVNPLCL[Dip]P[dD]WTC[dK]
peptide 2: Ac-C[tBuAla]PE[dK](Pent4ynoyl)PYCFADPY[Nle]CA
modifications: linker I:1-I:8-I:15 via TATA; linker II:1-II:8-II:15 via TATA (inferred); not fully specified (bridges); also: linker N-(acid-PEG3)-N-bis(PEG3-azide) on C-terminal dK of chain 1, joins two chain 2 copies via PYA triazoles
B16: BCY13341 (peptide)
peptide 1: C[Hyp][Cba]VNPLCL[Dip]P[dD]WTC[dA]
peptide 2: [Mpa][tBuAla]PE[dK(PYA)]PYCFADPY[Nle]C
modifications: linker I:1-I:8-I:15, II:1-II:8-II:15 via TATA; reading uncertain; also: linker at chain B 5 to a chain's N-terminus via N-(acid-PEG3)-N-bis(PEG3-azide)

What follows are binders tested against T1, CD137 on Jurkat reporter cells (Promega kit CS196005) (UniProt Q07011 24-255, limits assumed) (assay: cell-based or functional assay).
T1 sequence (Q07011 24-255 limits assumed): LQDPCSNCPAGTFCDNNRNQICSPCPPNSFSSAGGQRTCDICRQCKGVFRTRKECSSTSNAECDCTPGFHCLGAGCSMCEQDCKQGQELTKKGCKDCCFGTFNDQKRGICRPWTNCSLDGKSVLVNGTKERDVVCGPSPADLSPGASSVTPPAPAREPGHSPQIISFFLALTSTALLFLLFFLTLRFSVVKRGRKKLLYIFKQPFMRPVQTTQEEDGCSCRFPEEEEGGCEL

| Binder | Fold improvement in EC50 over BCY10000 on same plate, NCI-H292 [fold] | Fold improvement in Emax over BCY10000 on same plate, NCI-H292 [fold] |
| --- | --- | --- |
| B1 | 5.46 | 1.86 |
| B2 | 0.25 | 1.73 |
| B3 | 3.82 | 2.18 |
| B4 | 9.35 | 1.28 |
| B5 | 1.9 | 3.79 |

Molecular target: T1, CD137 on Jurkat reporter cells (Promega …)
Assay: cell-based or functional assay
Remark: another data set of the same source

| Binder | EC50 (nM), PC3 co-culture [nM] | Emax (fold induction over background), PC3 [fold over background] |
| --- | --- | --- |
| B6 | 0.3 | 46 |
| B7 | 0.17 | 35.6 |
| B8 | 0.13 | 51.3 |
| B9 | 0.22 | 40 |
| B10 | 0.05 | 78.1 |
| B11 | 0.09 | 48.4 |
| B12 | 0.1 | 40.3 |
| B13 | 0.11 | 44 |
| B14 | 0.19 | 38.1 |
| B15 | 0.19 | 47.4 |
| B16 | 0.19 | 49.1 |
